From patent US20040014707A1 come the findings set out here.

For the assay, the target named is PA specific receptor on A549 human lung epithelial cells.

With EGFP-PA32 fusion protein, the fold signal over non-specific EGFP binding was 4 fold.
